According to patent publication US20260042836A1:

Legend:
[1] = biological target: Butyrophilin Subfamily 2 Member A1 (BTN2A1) (human) (UniProt Q7KYR7); assay: cell-based or functional assay
[2] = biological target: BTN2A1; BTN3A1; BTN3A2/A3 peptide on (human); assay: luciferase killing assay, 20 h; T cells + luciferase target cells (5:1) + purified GAB + 30 µM pamidronate; fusion: anti-CD3 scFv (GAB)
[3] = biological target: BTN2A1; BTN3A1; BTN3A2/A3 peptide on (human); assay: luciferase killing assay, 20 h; T cells + three luciferase tumour cell lines (10:1) + purified GAB + 30 µM pamidronate; fusion: anti-CD3 scFv (GAB)
[4] = biological target: BTN3A1/A2/A3; assay: cell-based or functional assay

Chain of UniProt Q7KYR7 (Q7KYR7 29-527): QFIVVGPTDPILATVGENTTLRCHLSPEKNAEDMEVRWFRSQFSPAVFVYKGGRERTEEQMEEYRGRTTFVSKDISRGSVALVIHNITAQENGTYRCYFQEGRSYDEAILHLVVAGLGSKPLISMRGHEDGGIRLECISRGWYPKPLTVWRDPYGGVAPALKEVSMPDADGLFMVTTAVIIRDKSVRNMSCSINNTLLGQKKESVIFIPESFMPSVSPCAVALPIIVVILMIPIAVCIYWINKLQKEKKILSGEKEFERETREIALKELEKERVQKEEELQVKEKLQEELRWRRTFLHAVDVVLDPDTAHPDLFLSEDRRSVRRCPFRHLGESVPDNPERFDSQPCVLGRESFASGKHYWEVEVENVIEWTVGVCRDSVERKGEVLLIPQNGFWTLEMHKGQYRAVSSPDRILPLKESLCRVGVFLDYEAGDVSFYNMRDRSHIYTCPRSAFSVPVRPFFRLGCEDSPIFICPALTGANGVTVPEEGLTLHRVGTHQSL

B1: Vγ9Vδ2TCR MNP2γE22W (TCR, part only; not given: rest of gamma chain, delta chain, part only)
TCR gamma, part: AGHLEQPQISSTKTLSKTARLWCVVSGITISATSVYWYRERPGEVIQFLVSISYDGTVRKESGIPSGKFEVDRIPETSTSTLTIHNVEKQDIATYYCALWE
Q: For B1, which killing of luciferase transduced RPMI8226 cells by TCR-transduced αβT cells (MNP2 wt killed around 60%) [1] is on record?
A: Its killing of luciferase transduced RPMI8226 cells by TCR-transduced αβT cells (MNP2 wt killed around 60%) is over 90%.

B2: GAB-AJ8sγT81H (TCR, part only; not given: CDR3 delta, constant parts, anti-CD3 scFv, part only)
TCR gamma, part: AGHLEQPQISSTKTLSKTARLWCVVSGITISATSVYWYRERPGEVIQFLVSISYDGTVRKESGIPSGKFEVDYIPETSTSTLTIHNVEKQDIATYYCALWE
TCR delta, part: AIELVPEHQTVPVSIGVPATLRCSMKGEAIGNYYINWYRKTQGNTMTFIYREKDIYGPGFKDNFQGDIDIAKNLAVLKILAPSERDEGSYYCACDT
Q: For B2, which mean fold difference in EC50 of GAB against GAB-AJ8s [2] is on record?
A: Its mean fold difference in EC50 of GAB against GAB-AJ8s is 2.4 fold.

Q: What about the IFNγ production relative to GAB-AJ8s (GAB expression media, MZ1851RC, 30 µM pamidronate) [1] of the same binder?
A: The IFNγ production relative to GAB-AJ8s (GAB expression media, MZ1851RC, 30 µM pamidronate) was 4.2 fold.

Q: And the fold difference in EC50 of tumor cell killing against GAB-AJ8s [1]?
A: Its fold difference in EC50 of tumor cell killing against GAB-AJ8s is 2.4 fold.

B3: GAB-AJ8sγT83I (TCR, part only; not given: CDR3 delta, constant parts, anti-CD3 scFv, part only)
TCR gamma, part: AGHLEQPQISSTKTLSKTARLECVVSGITISATSVYWYRERPGEVIQFLVSISYDGTVRKESGIPSGKFEVDYIPETSTSTLIIHNVEKQDIATYYCALWE
TCR delta, part: AIELVPEHQTVPVSIGVPATLRCSMKGEAIGNYYINWYRKTQGNTMTFIYREKDIYGPGFKDNFQGDIDIAKNLAVLKILAPSERDEGSYYCACDT
Q: For B3, which IFNγ production relative to GAB-AJ8s (GAB expression media, MZ1851RC, 30 µM pamidronate) [1] is on record?
A: Its IFNγ production relative to GAB-AJ8s (GAB expression media, MZ1851RC, 30 µM pamidronate) is 8.8 fold.

B4: GAB-AJ8s-Vγ9 mutation T81I (TCR, part only; not given: CDR3 delta, constant parts, anti-CD3 scFv, part only)
TCR gamma, part: AGHLEQPQISSTKTLSKTARLECVVSGITISATSVYWYRERPGEVIQFLVSISYDGTVRKESGIPSGKFEVDYIPETSTSILTIHNVEKQDIATYYCALWE
TCR delta, part: AIELVPEHQTVPVSIGVPATLRCSMKGEAIGNYYINWYRKTQGNTMTFIYREKDIYGPGFKDNFQGDIDIAKNLAVLKILAPSERDEGSYYCACDT
Q: For B4, which IFNγ production relative to GAB-AJ8s (GAB expression media, MZ1851RC, 30 µM pamidronate) [1] is on record?
A: The IFNγ production relative to GAB-AJ8s (GAB expression media, MZ1851RC, 30 µM pamidronate) was 2 fold.

B5: GAB-AJ8sγT81W (TCR, part only; not given: CDR3 delta, constant parts, anti-CD3 scFv, part only)
TCR gamma, part: AGHLEQPQISSTKTLSKTARLECVVSGITISATSVYWYRERPGEVIQFLVSISYDGTVRKESGIPSGKFEVDYIPETSTSWLTIHNVEKQDIATYYCALWE
TCR delta, part: AIELVPEHQTVPVSIGVPATLRCSMKGEAIGNYYINWYRKTQGNTMTFIYREKDIYGPGFKDNFQGDIDIAKNLAVLKILAPSERDEGSYYCACDT
Q: Which mean fold difference in EC50 of GAB against GAB-AJ8s [2] does the source give for B5 here?
A: Its mean fold difference in EC50 of GAB against GAB-AJ8s is 2.8 fold.

Q: What about the IFNγ production relative to GAB-AJ8s (GAB expression media, MZ1851RC, 30 µM pamidronate) [1] of the same binder?
A: The IFNγ production relative to GAB-AJ8s (GAB expression media, MZ1851RC, 30 µM pamidronate) was 2 fold.

Q: What about the fold difference in EC50 of tumor cell killing against GAB-AJ8s [1] of the same binder?
A: Its fold difference in EC50 of tumor cell killing against GAB-AJ8s is 2.8 fold.

B6: GAB-AJ8s-Vγ9 mutation T83L (TCR, part only; not given: CDR3 delta, constant parts, anti-CD3 scFv, part only)
TCR gamma, part: AGHLEQPQISSTKTLSKTARLECVVSGITISATSVYWYRERPGEVIQFLVSISYDGTVRKESGIPSGKFEVDYIPETSTSTLLIHNVEKQDIATYYCALWE
TCR delta, part: AIELVPEHQTVPVSIGVPATLRCSMKGEAIGNYYINWYRKTQGNTMTFIYREKDIYGPGFKDNFQGDIDIAKNLAVLKILAPSERDEGSYYCACDT
Q: For B6, which IFNγ production relative to GAB-AJ8s (GAB expression media, MZ1851RC, 30 µM pamidronate) [1] is on record?
A: The IFNγ production relative to GAB-AJ8s (GAB expression media, MZ1851RC, 30 µM pamidronate) was 2 fold.

B7: GAB-AJ8sγE22W (TCR, part only; not given: CDR3 delta, constant parts, anti-CD3 scFv, part only)
TCR gamma, part: AGHLEQPQISSTKTLSKTARLWCVVSGITISATSVYWYRERPGEVIQFLVSISYDGTVRKESGIPSGKFEVDYIPETSTSTLTIHNVEKQDIATYYCALWE
TCR delta, part: AIELVPEHQTVPVSIGVPATLRCSMKGEAIGNYYINWYRKTQGNTMTFIYREKDIYGPGFKDNFQGDIDIAKNLAVLKILAPSERDEGSYYCACDT
Q: With B7 as the binder, how does the mean fold difference in EC50 of GAB against GAB-AJ8s [3] read?
A: Its mean fold difference in EC50 of GAB against GAB-AJ8s is 15.5 fold.

Q: And the IFNγ release after 20 hours of coculture, potency against GAB-AJ8s [1]?
A: Its IFNγ release after 20 hours of coculture, potency against GAB-AJ8s is 10 fold.

Q: And the IFNγ release relative to GAB-AJ8s (GAB expression media, T cells with MZ1851RC or SCC9, 30 µM pamidronate) [1]?
A: Its IFNγ release relative to GAB-AJ8s (GAB expression media, T cells with MZ1851RC or SCC9, 30 µM pamidronate) is 5.6 fold.

Q: What about the T cell mediated tumor cell killing (luciferase), activity against GAB-AJ8s [1] of the same binder?
A: The T cell mediated tumor cell killing (luciferase), activity against GAB-AJ8s was over 10 fold.

Q: And the fold difference in EC50 of tumor cell killing between GAB-AJ8s and GAB-AJ8γE22W [1]?
A: The fold difference in EC50 of tumor cell killing between GAB-AJ8s and GAB-AJ8γE22W was 15.5 fold.

B8: GAB-AJ8sδG31V (TCR, part only; not given: CDR3 delta, constant parts, anti-CD3 scFv, part only)
TCR gamma, part: AGHLEQPQISSTKTLSKTARLECVVSGITISATSVYWYRERPGEVIQFLVSISYDGTVRKESGIPSGKFEVDYIPETSTSTLTIHNVEKQDIATYYCALWE
TCR delta, part: AIELVPEHQTVPVSIGVPATLRCSMKGEAIVNYYINWYRKTQGNTMTFIYREKDIYGPGFKDNFQGDIDIAKNLAVLKILAPSERDEGSYYCACDT
Q: B8 was tested. Which IFNγ release after 20 hours of coculture, potency against GAB-AJ8s [4] did it give?
A: Its IFNγ release after 20 hours of coculture, potency against GAB-AJ8s is 10 fold.

B9: GAB-AJ8sδK53S (TCR, part only; not given: CDR3 delta, constant parts, anti-CD3 scFv, part only)
TCR gamma, part: AGHLEQPQISSTKTLSKTARLECVVSGITISATSVYWYRERPGEVIQFLVSISYDGTVRKESGIPSGKFEVDYIPETSTSTLTIHNVEKQDIATYYCALWE
TCR delta, part: AIELVPEHQTVPVSIGVPATLRCSMKGEAIGNYYINWYRKTQGNTMTFIYRESDIYGPGFKDNFQGDIDIAKNLAVLKILAPSERDEGSYYCACDT
Q: With B9 as the binder, how does the IFNγ release after 20 hours of coculture, potency against GAB-AJ8s [4] read?
A: Its IFNγ release after 20 hours of coculture, potency against GAB-AJ8s is 10 fold.

B10: GAB-AJ8sγE22WδG31V (TCR, part only; not given: CDR3 delta, constant parts, anti-CD3 scFv, part only)
TCR gamma, part: AGHLEQPQISSTKTLSKTARLWCVVSGITISATSVYWYRERPGEVIQFLVSISYDGTVRKESGIPSGKFEVDYIPETSTSTLTIHNVEKQDIATYYCALWE
TCR delta, part: AIELVPEHQTVPVSIGVPATLRCSMKGEAIVNYYINWYRKTQGNTMTFIYREKDIYGPGFKDNFQGDIDIAKNLAVLKILAPSERDEGSYYCACDT
Q: What does the source list for B10?
A: IFNγ release, potency against the single mutants (combined Vγ9 and Vδ2 mutations; RPMI8226 and SCC9) [1]: 10 fold; T cell mediated killing of RPMI8226 and SCC9, potency against GAB-AJ8s [1]: > 100 fold; T cell mediated killing of RPMI8226 and SCC9, potency against the single Vγ9 or Vδ2 mutants [1]: > 10 fold; IFNγ release, potency against the single mutants (combined Vγ9 and Vδ2 mutations; RPMI8226 and SCC9) [4]: 10 fold; T cell mediated killing of RPMI8226 and SCC9, potency against GAB-AJ8s [4]: > 100 fold; T cell mediated killing of RPMI8226 and SCC9, potency against the single Vγ9 or Vδ2 mutants [4]: > 10 fold

B11: GAB-AJ8sγE22WδK53S (TCR, part only; not given: CDR3 delta, constant parts, anti-CD3 scFv, part only)
TCR gamma, part: AGHLEQPQISSTKTLSKTARLWCVVSGITISATSVYWYRERPGEVIQFLVSISYDGTVRKESGIPSGKFEVDYIPETSTSTLTIHNVEKQDIATYYCALWE
TCR delta, part: AIELVPEHQTVPVSIGVPATLRCSMKGEAIGNYYINWYRKTQGNTMTFIYRESDIYGPGFKDNFQGDIDIAKNLAVLKILAPSERDEGSYYCACDT
Q: Which results are given for B11?
A: IFNγ release, potency against the single mutants (combined Vγ9 and Vδ2 mutations; RPMI8226 and SCC9) [1]: 10 fold; T cell mediated killing of RPMI8226 and SCC9, potency against GAB-AJ8s [1]: > 100 fold; T cell mediated killing of RPMI8226 and SCC9, potency against the single Vγ9 or Vδ2 mutants [1]: > 10 fold; IFNγ release, potency against the single mutants (combined Vγ9 and Vδ2 mutations; RPMI8226 and SCC9) [4]: 10 fold; T cell mediated killing of RPMI8226 and SCC9, potency against GAB-AJ8s [4]: > 100 fold; T cell mediated killing of RPMI8226 and SCC9, potency against the single Vγ9 or Vδ2 mutants [4]: > 10 fold
